Test [1] has as its target MERS VHH-55 (His-tagged, mammalian expression) (llama). Nature of the test: SPR.
Test [2] has as its target DPP4 protein (recombinant, soluble) (UniProt P27487 40-766). Nature of the test: BLI.
The next test concerns the target MERS-CoV S1 protein (MERS-CoV England1, UniProt K9N5Q8).
A further test addresses MERS-CoV RBD protein (MERS-CoV England1, UniProt K9N5Q8).
Test [3] deals with MERS-CoV RBD (crystallised, tag and glycans removed) (MERS-CoV England1, UniProt K9N5Q8).

DPP4 protein (recombinant, soluble), sequence (P27487 40-766): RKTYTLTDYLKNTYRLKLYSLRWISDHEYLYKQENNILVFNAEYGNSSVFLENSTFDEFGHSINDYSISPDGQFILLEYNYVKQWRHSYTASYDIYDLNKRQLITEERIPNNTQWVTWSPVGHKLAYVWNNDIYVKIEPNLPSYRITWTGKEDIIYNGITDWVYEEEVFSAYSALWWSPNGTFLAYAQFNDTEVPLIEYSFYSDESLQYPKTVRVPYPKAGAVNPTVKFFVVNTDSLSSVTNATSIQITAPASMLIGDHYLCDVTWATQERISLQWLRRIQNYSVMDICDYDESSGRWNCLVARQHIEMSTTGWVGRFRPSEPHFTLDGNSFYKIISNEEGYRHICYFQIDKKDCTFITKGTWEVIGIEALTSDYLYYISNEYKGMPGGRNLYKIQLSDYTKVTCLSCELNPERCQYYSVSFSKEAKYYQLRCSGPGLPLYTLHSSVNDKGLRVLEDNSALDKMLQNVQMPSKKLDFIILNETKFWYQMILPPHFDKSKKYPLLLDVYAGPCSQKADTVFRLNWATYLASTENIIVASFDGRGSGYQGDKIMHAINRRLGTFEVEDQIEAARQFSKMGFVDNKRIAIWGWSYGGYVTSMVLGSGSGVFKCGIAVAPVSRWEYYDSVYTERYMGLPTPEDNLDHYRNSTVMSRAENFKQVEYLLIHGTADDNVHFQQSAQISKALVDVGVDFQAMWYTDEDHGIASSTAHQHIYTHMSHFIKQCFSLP
MERS-CoV S1 protein, sequence (K9N5Q8 18-751): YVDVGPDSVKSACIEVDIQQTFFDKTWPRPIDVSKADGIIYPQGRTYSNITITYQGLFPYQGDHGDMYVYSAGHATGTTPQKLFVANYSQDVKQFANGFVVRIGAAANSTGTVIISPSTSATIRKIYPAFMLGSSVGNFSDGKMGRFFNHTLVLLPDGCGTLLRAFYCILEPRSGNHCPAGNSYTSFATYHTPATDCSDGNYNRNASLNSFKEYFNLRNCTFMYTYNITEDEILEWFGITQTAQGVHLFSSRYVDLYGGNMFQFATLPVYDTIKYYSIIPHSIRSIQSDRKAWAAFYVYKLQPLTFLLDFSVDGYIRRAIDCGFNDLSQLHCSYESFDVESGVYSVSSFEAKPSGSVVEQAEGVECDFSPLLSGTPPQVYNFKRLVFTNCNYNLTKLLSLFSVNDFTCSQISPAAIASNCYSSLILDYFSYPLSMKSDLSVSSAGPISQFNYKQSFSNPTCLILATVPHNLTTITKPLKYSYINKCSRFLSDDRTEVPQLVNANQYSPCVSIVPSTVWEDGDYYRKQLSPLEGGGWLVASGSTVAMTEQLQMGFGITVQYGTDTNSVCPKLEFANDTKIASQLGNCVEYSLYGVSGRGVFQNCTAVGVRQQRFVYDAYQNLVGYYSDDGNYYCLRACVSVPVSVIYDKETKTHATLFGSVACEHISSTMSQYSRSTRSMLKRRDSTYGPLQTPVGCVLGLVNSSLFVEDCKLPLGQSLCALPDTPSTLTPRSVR

With “MERS-CoV RBD protein (from UniProt K9N5Q8 367-589) (domain or fragment)”, the dissociation constant (Kd) in test [1] amounted to 0.0792 nM.

B1: Fc-tagged MERS-CoV RBD (domain or fragment)
chain: EAKPSGSVVEQAEGVECDFSPLLSGTPPQVYNFKRLVFTNCNYNLTKLLSLFSVNDFTCSQISPAAIASNCYSSLILDYFSYPLSMKSDLSVSSAGPISQFNYKQSFSNPTCLILATVPHNLTTITKPLKYSYINKCSRFLSDDRTEVPQLVNANQYSPCVSIVPSTVWEDGDYYRKQLSPLEGGGWLVASGSTVAMTEQLQMGFGITVQYGTDTNSVCPKLE
Regarding B1, in test [2], the binding result is “binds”.

B2: MERS VHH-55 (VHH)
VHH: QVQLQESGGGLVQAGGSLRLSCVASGSIFSINAMDWYRQAPGKQRELVAGITSGGSTNYGDFVKGRFTISRDNAKNTVYLQMDSLKPEDTAVYYCAAEVGGWGPPRPDYWGHGTQVTVSS
In the case of B2, the binding result (in the test with MERS-CoV S1 protein; with MERS-CoV RBD protein; in test [3]) was “binds” in each case.

The values above are taken from PMC7199733 (Cell, 2020).
